Laboratory results: patent US20240043504A1
Numbering of substitutions follows the chain as printed.

B1: mAb11004 (antibody, V domains shown)
VH: QVQLVESGGGVVQPGRSLRLSCVASGFTFSIYGMDWVRQAPGKGLEWVAVISYDGSNKYYADSVKGRFTISRDNSKNTLYLQMNSLRPEDTAVYYCAKDREAAADAFDIWGQGTMVTVSS
VL: DIQMTQSPSSVSASVGDRVTITCRASQGISSWLAWYQQKPGKAPKLLIYAASSLHSGVPSRFSGSGSGTDFTLTISSLQPEDFATYYCQQANSFRLTFGGGTKVEIK
B2: mAb11006 (antibody, V domains shown)
VH: EVQLVESGGGLVQPGGSLRLSCAASGFIVSRNYMSWVRQAPGKGLEWVSVIYSGGSTFYADSVKGRFTISRHNSKNTLYLQMNSLKAEDTAVYYCARELRGYFDYWGQGTLVTVSS
VL: DIQLTQSPSFLSASVGDRVTITCWASQGISSYLAWYQQKPGKAPKLLIYAASTLQSGVPSRFSGSGSGTEFTLTISSLQPEDFATYYCQLLNSYPYTFGQGTKLEIK
B3: mAb11008 (antibody, V domains shown)
VH: EVQLVESGGGLVQPGGSLRLSCAASGFTVSSNYMTWVRQAPGKGLEWVSVIYSGGSTFYADSVKGRFTISRHNSENTLYLQMNSLRAEDTAVYYCARDLAAAGTDYWGQGALVTVSS
VL: B2 VL with E81D, L90H, P95L
B4: mAb10998 (antibody, V domains shown)
VH: EVQLVESGGGLVHPGGSLRLSCAASGLTVSSNYMSWVRQAPGKGLEWVSVIYSGGSTYYADSVKGRFTISRHNSKNTLFLQMNSLRAEDTAVYYCARDRPITGTTLDVWGQGTTVTVSS
VL: DIQMTQSPSSLFASVGDRVTITCRASQSISSYLNWYQQKPGKAPKLLIYAASSLQSGVPSRFSGSGSGTDFTLTISSLQPEDFAFYYCQQTYSTPPITFGQGTRLEIK

Columns and labels:
[1] = target: T1, SARS-CoV-2 Spike Protein (RBD)(R319-F541).mmH (SARS-CoV-2); assay: Luminex bead binding, supernatant; details: remark: other sources report otherwise
[2] = target: T1, SARS-CoV-2 Spike Protein …; assay: Luminex bead binding, supernatant; details: remark: other sources report otherwise; remark: listed apart in the source

| Binder | Binding signal (MFI) [1] [MFI] | Binding signal (MFI) [2] [MFI] |
| --- | --- | --- |
| B1 | 3350 | 11300 |
| B2 | 5130 | 4740 |
| B3 | 4050 | 3180 |
| B4 | 1850 | 3840 |
